Article PMC3463529

Key:
Experiment in all cases: SEC; Superose12 10/300 GL, lysis buffer for native purification, 0.4 ml/min; concentrated Ni2+-NTA eluate of GFP-perlucin (~20 mg/ml); peak fractions analysed by SDS-PAGE; sizes estimated against gel filtration standards (12 kDa - 2 MDa)
[1] = molecular target: full length His-tagged GFP-perlucin (410 amino acids, 46.8 kDa) (Aequorea victoria | Haliotis laevigata) (UniProt P82596)
[2] = molecular target: His-tagged GFP-perlucin derivative lacking 15 C-terminal amino acids (395 amino acids, 45 kDa) (Aequorea victoria | Haliotis laevigata) (UniProt P82596)
[3] = molecular target: truncated His-tagged GFP-perlucin lacking 145 C-terminal amino acids (Aequorea victoria | Haliotis laevigata) (UniProt P82596)
[4] = molecular target: truncated His-tagged GFP-perlucin lacking 141 C-terminal amino acids (Aequorea victoria | Haliotis laevigata) (UniProt P82596)

polypeptide chains in the complex (peak A, 395aa/410aa and truncated variants together) (polypeptide chains) [1] | polypeptide chains in the complex (peak A, 395aa/410aa and truncated variants together) (polypeptide chains) [2] | stoichiometry N (polypeptide chains) [3] | stoichiometry N (polypeptide chains) [4] | Substance
50 | 50 | 3 to 5 | – | truncated His-tagged GFP-perlucin lacking 145 C-terminal amino acids (from UniProt P82596 1-10)
50 | 50 | – | 3 to 5 | truncated His-tagged GFP-perlucin lacking 141 C-terminal amino acids (from UniProt P82596 1-14)
